According to publication PMC8637566, “ERK signaling controls productive HIF‐1 binding to chromatin and cancer cell adaptation to hypoxia through HIF‐1α interaction with NPM1” (Molecular Oncology, 2021):

Key:
[1] = molecular target: NPM1 (nucleophosmin, B23) (UniProt P06748); experiment: anti-FLAG IP of transduced peptide, NPM1 blot; conditions: reference: TAT-ETD-FLAG WT; sites S641,S643
GST‐NPM1 B23.1 = molecular target: T1, GST‐NPM1 B23.1 (UniProt P06748 1-294); experiment: pull-down; GST-NPM1 forms immobilised on GSH-agarose as baits, bacterially expressed and purified HIF-1α(348–826)SE or TAT-ETD-SE-FLAG peptide as prey; immunoblot with anti-HIF-1α or anti-Flag; conditions: both partners purified
T1 construct: NPM1 isoform B23.1, the most abundant form, with the C-terminal aromatic stretch; also called GST‐B23.1; B23.1 form of recombinant NPM1; source: E. coli BL21 (RIL), purified (GSH‐agarose)
T1 sequence (P06748 whole entry, canonical isoform): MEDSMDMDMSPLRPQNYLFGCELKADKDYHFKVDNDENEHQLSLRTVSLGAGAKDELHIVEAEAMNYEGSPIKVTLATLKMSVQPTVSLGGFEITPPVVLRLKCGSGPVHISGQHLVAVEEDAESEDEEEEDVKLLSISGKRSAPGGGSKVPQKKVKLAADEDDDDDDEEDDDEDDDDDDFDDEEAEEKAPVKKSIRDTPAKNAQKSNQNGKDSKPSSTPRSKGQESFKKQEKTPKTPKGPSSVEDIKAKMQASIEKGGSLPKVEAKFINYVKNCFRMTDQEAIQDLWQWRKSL

| Molecule | binding against the reference [1] | binding result (GST‐NPM1 B23.1) |
| --- | --- | --- |
| HIF‐1α ETD, 616-658 (from UniProt Q16665) TAT-ETD-SA-FLAG | lost |  |
| TTTATTDELKTVTKDRMEDIKILIAEPSPTHIHKETTSATSSP (peptide, UniProt Q16665 616-658, looked up, HIF-1α ERK targeted domain (ETD), residues 616–658, Ser641 to Glu; source: E. coli, purified) [TAT‐ETD(SE)‐FLAG peptide] |  | binds |
